This is an account of results in paper PMC12377726 (Proceedings of the National Academy of Sciences of the …, 2025).

B1: G001_LD_07A_VRC01c_58 (antibody, V domains shown)
VH: QVQLVQSGAEVRKPGASVKVSCKASGYTFTDYYIHWVRQAPGQGLEWMGWINPNSGGTNYAQKFQGWVTMTRDTSISTAHMELRRLRSDDRAVYYCARGVVHSGFEFGYWGQGTLVTVSS
VL: DIQMTQSPSTLSASVGDRVTITCRASQSISNWLAWYQQKPGKAPKLLIYKASSLESGVPSRFSGSGSGTEFTLTISSLQPDDFATYYCQQYETFGQGTKVEIK
notes: also called G001-58
B2: G001_gp1_V10_VRC01c_2021-0087 (antibody, V domains shown)
VH: QVQLVQSGAEVKKPGASVKVSCKASGYTFTGNYIHWVRQAPGQGLEWVGWLNPNSGGTNYAQQFQGRVTMTRDTSISTAYMELNRLRSDDTAVFYCARGLWQWEFRYWGQGTLVTVSS
VL: DIVLTQSPGTLSLSPGERATLSCRASQSVSSSNLAWYQQKPGQAPRLLIYGASSRATGIPDRFSGSGSGTDFTLTISRLEPEDCAVYYCQQYEGFGGGTKVEIK
notes: also called G001-0087
B3: G001_gp1_V10_VRC01c_179 (antibody, V domains shown)
VH: QVQLVQSGADVKKPGASVKVSCKASGYTFTDYYMHWVRQAPGQGLEWMGWINPNSGGTNYAQKFQDRVTMTRDTSVSTAYMEVSGLRSDDTAVYYCARIKLCNGGSCNWSLGYWGQGSLVTVSS
VL: DIQMTQSPSSLSASVGDRVTITCQASQDISNYLNWYQQKPGKAPKLLIYGASNLETGVPSRFSGSGSGTDFTFTISSLQPEDIATYYCQQYEFFGPGTKVDIK
notes: also called G001-179
B4: G001_LD_07A_VRC01c_59 (antibody, V domains shown)
VH: QVQLVQSGAEVKKPGTSVKVSCKASEYTFTGYYVHWVRQAPGQGLEWMGWINPNSGGTNYAQKFQGWVTMTRDTSISTAYMELSRLKSDDTAVYYCARSDYISSWYFGYWGQGTLVTVSS
VL: EIVMTQSPATLSVSPGERATLSCRASQSVSSNLAWYQQKPGQAPRLLIYGTSTRATGIPARFSGSGSGTEFTLTISSLQSEDFAVYYCQQYETFGQGTKVEIK
notes: also called G001-59

This experiment addresses eOD-GT8 (engineered outer domain germline-targeting version 8), monomer (HIV-1 gp120 engineered outer domain, …). As to the kind of experiment: SPR. To be noted: both partners purified.
On to B1, for which the dissociation constant Kd (in general, the constant that tells how readily two partners part at equilibrium) came to 0.437 nM.

B2: the Kd is 0.15 nM.

B3: the Kd was 0.13 nM.

For B4, binding was put at a Kd of 1.76 nM.
